Source: US20160184441A1, “PROLAMIN-BASED FILM AND METHOD FOR MANUFACTURING PROLAMIN-BASED ORAL FILM FOR PROTECTING ACTIVITY OF ANTI-OXIDATIVE MATERIAL” (SEHABIO CO., LTD., priority 2014, published 2016)

Legend:
catalase [1] = test: Catalase activity in the small intestine condition (pH 7.4, with or without trypsin); type: biochemical; conditions: pH 7.4, 30 minutes
Procedure: (§1) In the prolamin-based film for oral delivery containing catalase, the activity of catalase was measured by checking the decomposition rate of hydrogen peroxide (H2O2). The activity of catalase was measured by mixing catalase or the prolamin-based film for oral delivery containing catalase with 10 μM of H2O2 in a buffering solution of pH 7.0, and then monitoring the absorbance value of H2O2 at 240 nm. Further, in the prolamin-based film for oral delivery containing SOD, SOD activity was measured in accordance with the manufacturer's instructions by using SOD assay kit (SOD determination kit 19,160, Fluka, St. Louis, Mo.). Significance of results was determined via t-test between Zein film and other films containing SOD or catalase with p<0.05(*).
In order to mimic the small intestine condition, test groups were divided into […] Trypsin-treated group and Trypsin-untreated group, respectively, while being left for 30 minutes in the environment of pH 7.4.
The activities of catalase and SOD were measured in the same manner as Example 2-1. Significance of results was determined via t-test between free enzymes and other delivery vehicles with p<0.05(*).

catalase [2] = test: Catalase activity by decomposition rate of H2O2 (absorbance at 240 nm), pH 7.0; type: biochemical; conditions: free enzyme vs enzyme contained in film (FIG. 2, FIG. 3)
Procedure: as §1
The activities of catalases contained in the film for oral delivery as prepared in the Comparative Example 1-1 and Example 1-1 were compared. […] 1 mg of each formulation was taken to check the quantity of fluorescence which was then compared with the initially used quantity of fluorescence, resulting in the determination of the quantity of catalase in each formulation. The activity of catalase was evaluated at pH 7.0 as described in Example 2-1 by using fluorescent-unbound catalase, forming Zein Nanoparticle and Film, and taking 1 mg of each formulation. […]

catalase [3] = test: Catalase activity in the stomach condition (HCl pH 1.3, with or without pepsin); type: biochemical; conditions: pH 1.3, 20 minutes, pepsin-treated or pepsin-untreated (FIG. 5, FIG. 6)
Procedure: as §1
The function of Zein in protecting an anti-oxidative protein in the stomach condition was evaluated. In order to mimic the stomach condition, catalase or the prolamin-based film for oral delivery containing catalase was added into hydrochloric acid solution (50.1 mM HCl, pH 1.3) and left for 20 minutes. […] The activities of catalase and SOD were measured in the same manner as Example 2-1. Significance of results was determined via t-test between free enzymes and other delivery vehicles with p<0.05(*).

Human Skin Fibroblasts = conditions: Silverberg et al. 2012; cited from earlier work

Molecule | relative activity of catalase in the small intestine condition, Trypsin-treated (catalase [1]; Trypsin-treated group (FIG. 8, FIG. 9)) | relative activity of catalase at pH 7.4, Trypsin-untreated (catalase [1]; Trypsin-untreated group (FIG. 8)) | relative activity of catalase (catalase [2]) | relative activity of catalase in the stomach condition (catalase [3]) | protection of cells from reactive oxygens (Human Skin Fibroblasts)
catalase | lost its activity significantly | maintained its activity | approximately similar to those as contained in the Zein-based film | lost almost completely its activity | –
Cn1c(=O)c2c(ncn2C)n(C)c1=O [Caffeine, caffeine] | – | – | – | – | able to protect cells from reactive oxygens
